# Measurements reported in article PMC9418005 (Nature Microbiology, 2022).
# B1: P2G3 LS human IgG1 monoclonal antibody (antibody, V domains shown)
# VH: EVQLVESGGGLVQPGRSLRLSCAASGFRFDDYALHWVRQAPEKGLEWVSGISWNSNNIGYAESVKGRFTISRDTAKKSLYLQMNDLRAEDTALYYCVKDRHYDSSGYFVNGFDIWGQGTLVTVSA
# VL: DIQLTQSPSFLSASVGDRVTVTCRASQGISSYVAWYQQKAGKAPTLLIYTASTLQSGVPSRFSGSGSGTEFTLTISSLQPEDFATYYCQQLHSYPVTFGQGTRLDIE
# B2: P5C3 LS monoclonal antibody (antibody, V domains shown)
# VH: QMQLVQSGPEVKKPGTSVKVSCKASGFTFTSSAVQWVRQARGQRLEWIGWIVVGSGNTDYAQQFQERVTITRDMSTSTAYMELSSLGSEDTAVYYCAAPNCSGGSCYDGFDLWGQGTMVTVSS
# VL: EIVLTQSPGTLSLSPGERATLSCRGSQSVRSSYLGWYQQKPGQAPRLLIYGASSRATGIPDRFSGSGSGTDFTLTISRLEPEDFAVYYCQQYGSSPWTFGQGTKVEIK
# Biological target: original 2019-nCoV RBD protein (SARS-CoV-2, UniProt P0DTC2)
# Assay: Luminex bead-based competitive binding assay
# Conditions: both partners purified
row,Binder,binding result
1,B1,binds
2,B2,binds
